Measured values taken from the supplement of paper PMC9170038.

Tested on: K4 kissing-loop RNA reporter
Assay: apparent KD of K4 kissing-loop reporter; higher = weaker reporter binding
Conditions: Eterna round: R107
Method: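 RNA-MaP round R107: designed RNA switches with theophylline, tryptophan, arginine or FMN aptamers are transcribed on-chip within common flanks. They are titrated with a labelled K4 kissing-loop RNA reporter in RNA-MaP buffer (100 mM Tris pH 7.5, 80 mM KCl, 4 mM MgCl2), without ligand or with the indicated ligand. Median apparent KD per design.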

[1] = input ligand: theophylline 20 uM
[2] = input ligand: tryptophan 2.4 mM
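Note: bound reporter read as fluorescence of individual clusters on recovered sequencing chips by microscopy, with normalized cluster intensities fitted with a binding model.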

Sequence	apparent KD of K4 kissing-loop reporter (input ligand: FMN 200 uM)	apparent KD of K4 kissing-loop reporter (input ligand: arginine 13.2 mM)	apparent KD of K4 kissing-loop reporter (input ligand: none)	apparent KD of K4 kissing-loop reporter [1]	apparent KD of K4 kissing-loop reporter [2]
UUUGUAUCGGGAAGGAGCGUGAAUGAUAAUGGAUAUAGUGAUGUUAUAUAUAAGAACGAAUCACAGGUAGGUCGCCCGGAUGACU [SSArgB.P]	546 nM	566 nM	648 nM	586 nM	678 nM
GGUAGCAUGGCGGCCGCCACUUAGACCCUCCAGGAUGAGGGAAAAUAGCAGUGAUGUUGCUAGGUAAGGACCGGGCCAUGCUACC	230 nM	120 nM	162 nM	156 nM	119 nM
GGCGGGUGCCCGUAAGGGUGCCCGGCCGAUACCAGCGCGACGGCGCGCCCUUGGCAGCGGCGCCGAGUGAUGUUCGGCCUGCCGU [#2 Same State - Theophylline A Attempt #24 (HarryS)]	92.7 nM	105 nM	90.6 nM	84.5 nM	151 nM
CGAGAGGUCUUGUUUGGAUGUGUUUUAUGGCGAGGACCGGUACGGCCGCCACUCGGGUGAUGUUAGUGAUGUUGAUGUAGUGAUG [dcdmullin]	91.9 nM	79.9 nM	93.4 nM	162 nM	76.9 nM
AAGUGAUGUUGUAGUGAUGUUGUGAUGUUGCAGGAUAUAUAGUGAUGUAGAAGGGUAAGUACUGAUGUUGUUAGUAAGUGAUGUU [tvvbmullin]	106 nM	50.1 nM	89.9 nM	76.6 nM	77.8 nM
AUUGUAUACUGAAGGAGCGAGUAGUGGAAACAUAAACUCAUUGCGAGUGAUGUUCGCAGUACUCAGGUAGGUCGCAGUAAUGGUA [Exclusion Arginine B Gf 9]	756 nM	167 nM	528 nM	242 nM	451 nM
UGACAUUGCUCAGAUACCAGACUUGAGGAUCACCCAGGUGCCAAACGUACAAUAAUAAAAGUCCCUUGGCAGCUGAGCAAUGUCU [TheoBX 14]	65.7 nM	51.7 nM	30.2 nM	69.9 nM	55.3 nM
GUAUCGCUAGGAGGAUAUUCCAAUCCGCCUAUAAUAGGUGGUACGGAGUGAUGUUCCGAUUUACGGGAAGAAGGCCUAGUGAUAC [FMN B 17]	155 nM	318 nM	302 nM	381 nM	346 nM
CUUGCCCUUUCGGCCGCCACUCCGAGUGAUGUUGGGAUGUUCGGUGCAGCCAUUUAGAUGUCAGUGAGGACCGGGAAAUUAUGCG [theeternabot_exclusion_KL_Trp_B_9]	220 nM	128 nM	251 nM	150 nM	196 nM
AAGCAUUCUUCGGAUUGCAGACCCGCUGAGGAGGAUAUGACGAAAGUCAGAAGGUUUCAGUGAUGUUGAGGCCUCCUCAAUGGUC [whbob_Ex_FMNA__2th183]	280 nM	259 nM	250 nM	255 nM	263 nM
GUUACGCAUGGAAGGAGCGCGAAAAUUAAAUGUGAGUGAUGUUCACAAAUAAAUUAAAUAACGCAGGUAGGUCGCCAUGUGUAAC [Ex Arginine B K4 3]	80.3 nM	77.6 nM	89 nM	80.7 nM	80.9 nM
AGACUACCACACUGUCAAUAGACAGUGAACUAGGAUAUGCUGAUAAGCAGAAGGAGUGAUGUUCCUAAUAAAAGGUAGUCAUAAU [FmnAX 16 #SwitchBubble #StaticStem #K4Early]	426 nM	431 nM	415 nM	587 nM	360 nM
UAAUAGUAGACCAGGUCUACUAUUAGGGAUACCAGCCUCGGUCGAGGCCCUUGGCAGCCCAGCGGGUCCAGUGAUGUUGGAUGUC [Beoratri]	400 nM	284 nM	371 nM	207 nM	342 nM
AUCGUUGUCUGAGGAUAUCGGUUAACUGUAGUGAUGUUACAGAAAAUUCAUAUUAUAUUUUCUAUUCGAGAAGGCAGACUACGUA [JR_Nu3_ExcFMNB_Sub019]	203 nM	141 nM	160 nM	145 nM	157 nM
AAUUUUAAUAAUAAAUAAUAAAUAAAUGAUACCAGUAUUUUUUUUUACCCUUGGCAGCAUAUAUAAGGGCAGUGAUGUUGCCAAA [Same State - Theophylline A]	145 nM	85.2 nM	119 nM	111 nM	131 nM
AGACUACUGAUAGGAUAUAACAUACUACUCGUAUACCAAAGGUAUACGAGAACCCUUCUAGUGAUGUUAGAAGGGUCGGUAGUCA [Omei KL FMN B Exc B v7]	82.6 nM	68 nM	70.9 nM	70.1 nM	72.8 nM
CACGAUGAAUUCUCUAGGAGUGAUGUUUUUCGAGGACCGGUACGGCCGCCACUCGGACCACGAGCGUGGUAGCGGCGAAAAGACU [qpmullin]	782 nM	464 nM	629 nM	443 nM	1070 nM
UGACUGGACUGAAGGAGCGCUGAACUCCUAGUGAUGUUAGGAUAACGAGACAAAGUCUCGAAGCAGGUAGGUCGCAGUCUAGUCU	118 nM	95.3 nM	112 nM	123 nM	108 nM
AACGGCCAGUCGGCCGCCACUCCAAGCAGUGAUGUUGCUAAGUUUCUAAAAGAGUGAUGUUCUUAGAGGACCGGGACUGAUGUAA [Exclusion Tryptophan B Gf 6]	130 nM	155 nM	154 nM	161 nM	104 nM
UGUCAUUGGUCUGAUACCAGCUUGAUCGGUAAACGAUCUACUGGAGUGAUGUUCCUAAAUAGCCCUUGGCAGCAGACCGAUGACU [TheoBS 4 #SwitchBubble #StaticStem]	197 nM	157 nM	180 nM	123 nM	173 nM
GAAUUUGCCGAUCAAAGUGAUGUUUUGGAUACCAGCCAUCAAGCUGGCCCUUGGCAGCCAACGUCGGCUGGCGACCGUGCGGACU [theeternabot_exclusion_KL_Theo_A_50]	383 nM	253 nM	347 nM	310 nM	285 nM
CCCAAGGGCGAACCGGUAUGAUCACCGGAUACCAGAGGCGAAAGCCUCCCUUGGCAGCCGGUUGUAGUGAUGUUACACUGGUUCU	91.4 nM	74.6 nM	88.7 nM	118 nM	87.7 nM

Sequence	apparent KD of K4 kissing-loop reporter (input ligand: FMN 200 uM)	apparent KD of K4 kissing-loop reporter (input ligand: arginine 13.2 mM)	apparent KD of K4 kissing-loop reporter (input ligand: none)	apparent KD of K4 kissing-loop reporter [1]	apparent KD of K4 kissing-loop reporter [2]
UGAUUUAACUGAAGGAGCGGCAAUUGAUAAGUAAAUAUAGUGAUGUUAUAUAAGAUAGAGAGCCAGGUAGGUCGCAGAGGUAUUA [ExArgB.M]	154 nM	154 nM	132 nM	210 nM	142 nM
UGAUAAAGCAGUGAUGUUGCAAGAAAUGAUACCAGUUAAGAAAAGAACCCUUGGCAGCAUAAAGUGCGCUCUAAUGAGUGUGCUU [theophylline a same state]	141 nM	183 nM	156 nM	231 nM	126 nM
ACAGAGGUAACCUGCAGUGAUGUUGCGGAUACCAGCUCACGAAACAGCCCUUGGCAGCCGCCGUCACUAACACGGUGGAUACAGU [theeternabot_exclusion_KL_Theo_A_49]	257 nM	168 nM	230 nM	178 nM	181 nM
AGUGAAGUUAGUGAUGUGUGAGUUUGGGAAGGAGCGCCGAGGAAGGCAGGUAGGUCGCCCAGUGAUGUUGGUGUAAAGAUGAGAG [whbob_Ex_Arginine_A_2t122]	308 nM	135 nM	158 nM	254 nM	231 nM
AAUUUUAAUAAUAAAUAAUAAAUAAAUGAUACCAGUAUUUUUUUUUACCCUUGGCAGCGUAUAUAAGGGCAGUGAUGUUGUCAGA [whbob_SS_Theo_A_w59]	223 nM	144 nM	212 nM	232 nM	164 nM
AACGCCACCGCGGAUACCAGAGCCAGUGAUGUUGGAUCUGGAAAUUCGUGGGUAAGCUGGCUCCCUUGGCAGCUGCGGUUCUUUU [Tiisaron]	134 nM	112 nM	114 nM	131 nM	109 nM
CCAUCGCUAUUCGAUACCAGCUACUUAGUGAUGUUAAGUUAAAAUCCACUGUAGGUGGAAAGCCCUUGGCAGCGAAUAGUGAUGG [Theophylline B K4 23]	235 nM	189 nM	205 nM	117 nM	203 nM
GGUAUCUAUACAGAUACCAGUCGUACAGCUGCAUUACAGGUUAGUGAUGUUAACCUGUACGACCCUUGGCAGCUGUAUAGUAGUA [Theo B Ex t2b]	101 nM	72 nM	91.8 nM	100 nM	94 nM
AAGCAGUCACUCGUAGCCAUCGAAGAUGGUCGAGGACCGGUACGGCCGCCACUCGGAGUGAUGUUCCGAAGACUGCAAAAUAAAA	272 nM	313 nM	337 nM	378 nM	364 nM
AAAUUUAUAUUAGAUACCAGUAUUUUGAAUGUUUAUUAUGACAAGAGUGAUGUUCUUGUAUGCCCUUGGCAGCUGGUAUGGGUUU [KL-XTheo-B23]	116 nM	111 nM	111 nM	113 nM	115 nM
GCCCACAUUAGUGAUACCAGUGGGCACUCACCAGUUCAGUGAUGUUGGACGCAGUGUGGUCACCCUUGGCAGCACCGAUGCCCUU [theeternabot_sameState_KL_Theo_B_32]	129 nM	128 nM	122 nM	122 nM	129 nM
GAACGGCUGGCGGCCGCCACUGGUAUACGAGUGAUGUUCGGAUACACAUAGAAUAAGGUGAUUGACAGGACCGGGUCAGAGCCGG [#15 K4 Tryptophan B Same State]	251 nM	197 nM	234 nM	246 nM	180 nM
UGAUACCAGACGGCCGCCACUCCCGUAAGUCAAAGACUUACGAAGAGUAUCGUCCAGUGAUGUUGGAGGACCGGGUCUGGUAUCU [FiskerMod 10 - Jieux - Exclusion - Tryptophan B]	344 nM	298 nM	338 nM	320 nM	729 nM
UAAGAACAGUCGGCCGCCACUUGAACUACAGAAGUAGGUAUAGCACCGUGAGUGAUGUUCACUGAAAGGACCGGGACUUGCUCCG [theeternabot_sameState_KL_Trp_B_30]	476 nM	310 nM	399 nM	430 nM	574 nM
AAGAGUAAACUCUAACUCCUUAAGUCCGAAGGAGCGACUCAAUGGUCAGGUAGGUCGCGGACAAUCCUAGUGAUGUUAGGAUCUG [Arg A SS t5]	252 nM	220 nM	268 nM	260 nM	211 nM
UUUUUAAACUCGGCCGCCACUCAAAUGGGAGUGAUGUUCCCAAAAUAAUAAAUAAAUAAUAAUAAGAGGACCGGGAGAAAUUUUU [Same State - Trytophan B]	94 nM	98.2 nM	106 nM	94.8 nM	81.3 nM
AUACGCGAUAGCGUAUAUAACAAAUCAGAAGGAGCGUGGAAGUACACAGGUAGGUCGCUGAAAAUAGGACUAGUGAUGUUAGUUA [JR_Nu_SSArginiA_Sub026]	211 nM	193 nM	232 nM	172 nM	166 nM
GGAUAGGACAGAGGAUAUGGUAGUGAUGUUACCAAACUGGUUAUCAAUGUUAGAAAAUUGACAAAUCCAGAAGGCUGUCCUAUCG [KL-XFMN-B14]	198 nM	60.7 nM	66.4 nM	54.8 nM	62 nM
GGGAGUAGUGCGGCCGCCACUGAGAAAGAAGAAGAAUAUAGUGAUGUUAUAUAGGAAAUAAAGAAUAGGACCGGGCAUUAGAUUU [SSTRyptB.M]	259 nM	211 nM	235 nM	181 nM	211 nM
UUUAUAUAGUCGGCCGCCACUGAUUUUUAUAUAUGUUUAUGUUUAUACGAGUGAUGUUCGAUAUACAGGACCGGGACUUUUGUUA [JR_SSTryptoB_Sub017]	268 nM	291 nM	294 nM	306 nM	207 nM
GCAUCCGAUGCAGGAUAUAGAUGAACGAGUGAUGUUUGGAAUUUAUGUCCAAAGCCUACGAUCAGACUAGAAGGGCAUCGGAUGC	147 nM	75.4 nM	122 nM	197 nM	164 nM
